Biological target: HLA-A*01:01/hβ2m complex (empty, peptide-free or peptide-receptive) (human)
Assay: FP

Q: ILDTAGQEEY [NRAS_(55-64) wild-type (Q61) peptide] was tested. Which IC50 did it give?
A: Its IC50 is 278 nM.
